This is an account of results in IntAct's records for PubMed 19696741.

B1: Carboxypeptidase Y (Saccharomyces cerevisiae), P00729 (parent)
chain: MKAFTSLLCGLGLSTTLAKAISLQRPLGLDKDVLLQAAEKFGLDLDLDHLLKELDSNVLDAWAQIEHLYPNQVMSLETSTKPKFPEAIKTKKDWDFVVKNDAIENYQLRVNKIKDPKILGIDPNVTQYTGYLDVEDEDKHFFFWTFESRNDPAKDPVILWLNGGPGCSSLTGLFFELGPSSIGPDLKPIGNPYSWNSNATVIFLDQPVNVGFSYSGSSGVSNTVAAGKDVYNFLELFFDQFPEYVNKGQDFHIAGESYAGHYIPVFASEILSHKDRNFNLTSVLIGNGLTDPLTQYNYYEPMACGEGGEPSVLPSEECSAMEDSLERCLGLIESCYDSQSVWSCVPATIYCNNAQLAPYQRTGRNVYDIRKDCEGGNLCYPTLQDIDDYLNQDYVKEAVGAEVDHYESCNFDINRNFLFAGDWMKPYHTAVTDLLNQDLPILVYAGDKDFICNWLGNKAWTDVLPWKYDEEFASQKVRNWTASITDEVAGEVKSYKHFTYLRVFNGGHMVPFDVPENALSMVNEWIHGGFSL
partner: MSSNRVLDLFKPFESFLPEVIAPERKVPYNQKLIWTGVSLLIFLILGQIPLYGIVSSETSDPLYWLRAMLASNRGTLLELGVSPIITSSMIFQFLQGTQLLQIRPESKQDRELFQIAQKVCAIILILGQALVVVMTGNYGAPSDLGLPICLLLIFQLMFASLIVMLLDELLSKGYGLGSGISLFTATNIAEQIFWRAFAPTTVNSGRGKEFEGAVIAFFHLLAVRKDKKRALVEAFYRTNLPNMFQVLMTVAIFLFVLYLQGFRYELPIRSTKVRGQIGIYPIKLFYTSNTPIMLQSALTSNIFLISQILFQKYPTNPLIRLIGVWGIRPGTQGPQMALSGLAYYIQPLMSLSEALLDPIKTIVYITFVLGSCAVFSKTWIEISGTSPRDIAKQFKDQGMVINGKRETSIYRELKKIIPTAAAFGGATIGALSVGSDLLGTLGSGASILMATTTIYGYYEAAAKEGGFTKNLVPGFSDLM

The experiment covers variants of B1. The conditions noted are these: with sc61a_yeast SEC61, P32915.
In the case of G255R, the “effect of a mutation on the interaction” value is given as “increasing interaction”.
